Laboratory results: patent US20190248902A1 (published 2019)

T1: Cyno ASGR-1 (cynomolgus monkey, UniProt P07306 1-291 (human entry))
T1 construct: Expressed on HEK 293 cells or as membrane prep on beads; cDNA from XP_005582755; also called cynomologus monkey ASGR-1
T1 chain: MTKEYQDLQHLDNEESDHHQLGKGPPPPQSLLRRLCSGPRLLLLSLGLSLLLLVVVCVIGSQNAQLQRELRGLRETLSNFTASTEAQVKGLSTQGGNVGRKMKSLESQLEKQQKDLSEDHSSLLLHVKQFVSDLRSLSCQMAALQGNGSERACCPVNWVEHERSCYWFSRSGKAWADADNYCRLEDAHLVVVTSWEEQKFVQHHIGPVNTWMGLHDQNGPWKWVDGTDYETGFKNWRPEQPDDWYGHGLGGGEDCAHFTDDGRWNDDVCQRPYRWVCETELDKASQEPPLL


Biological target: T1, Cyno ASGR-1
Assay: FACS on transfected HEK 293 cells or membrane preps on beads; Y = signal at least 2x irrelevant IgG
Protocol: Human ASGR-1-specific, ligand competing antibody samples were tested for binding to ASGR-1 from other species (cynomologus monkey ASGR-1, mouse ASGR-1, rat ASGR-1, dog ASGR-1, and pig ASGR-1) as well as to human ASGR-2 in FACS binding assays at normalized antibody concentrations. For cell-based assays, HEK 293 cells expressing the appropriate antigen of interest were mixed with antibody sample or controls, incubated for 1 hour at 4° C., and then washed twice. Cells with bound antibody were then incubated with Alexa Fluor® 647 IgG Fc fragment-specific detection antibody and 7-AAD viability stain for 15 minutes at 4° C., washed once and resuspended in FACS buffer. Samples were analyzed using a BD Accuri™ Flow Cytometer and an Intellicyt HyperCyt Autosampler. As a negative control, supernatants and controls were also screened against HEK 293 cells transfected with empty parental vector. […] For membrane-prep binding assays, ASGR-1 species specific membrane preps were used to coat LumAvidin® microspheres (beads) and tested for binding to selected hybridoma supernatants or controls. Briefly, ASGR-1 species specific membrane preps were incubated with streptavidin-coated LumAvidin® beads for 45 minutes in the dark at room temperature and washed twice. Beads were resuspeneded in FACS buffer containing Stabilguard®. Antigen-bound beads were then incubated with normalized antibody sample for 1 hour in the dark at room temperature, washed twice, incubated with Alexa Fluor® 488 IgG Fc fragment-specific detection antibody for 15 minutes in the dark at room temperature, washed once and finally resuspended in FACS buffer. Samples were analyzed using an Intellicyt iQue™ Screener Platform. FACS buffer supplemented with 1 mM Calcium Chloride was used in all steps. As a negative control, supernatants and controls were also screened against a non-ASGR-1 antigen membrane prep coated on the LumAvidin® beads.

Binder	binding result
184E7 (antibody, V domains shown, Tested as hybridoma supernatant at normalized concentration) VH: QVQLVQSGAEVKTPGASVKVSCRASGYTFTSYNMHWVRQVPGQGLEWMGWINPNNGGSNYTQKFQGRVTMTRDTSISTAYMELSRLRSDDTAVYYCARKFGDWGQGTLVTVSS VL: DIQMTQSPSSRSASIGERVTITCRASQGISNYLAWIQQKPGTAPKSLIYAASSLQSGVSSRFSGSGFGTDFTITISSVQREDFATYYCQQYNGYPFTFGHGTKVDIK	binds
26C4 (antibody, V domains shown, Tested as hybridoma supernatant at normalized concentration) VH: QVQLVQSGAEVKKPGASVKVSCKASGYTFTNYDINWVRQASGQGLEWMGWMNPNSGNTGYAQRFQGRVTMTRNTSINTAYMELSSLRSEDTAVYYCASSSGWYYFDYWGQGTLVTVSS VL: not shown	binds
29H8 (antibody, V domains shown, Tested as hybridoma supernatant at normalized concentration) VH: QVQLVQSGAEVQKPGASVKVSCKASGYTFTNYDINWVRQATGQGLEWMGWMNPNSGNTGYAQRFQGRVTMTRNTSISAAYMELSSLRSEDTAVYYCASSSGWYYFDYWGQGTLVTVSS VL: not shown	binds
12D2 (antibody, V domains shown, Tested as hybridoma supernatant at normalized concentration) VH: EVQLVESGGGLVKPGGSLRLSCAASGFTFSSYSMNWVRQAPGKGLEWVSSISSSSSYIYYADSVKGRFTISRDNAKNSLYLQMNSLRAEDTAVYYCARLGDYWGQGTLVAVSS VL: not shown	binds
194C10 (antibody, V domains shown, Tested as hybridoma supernatant at normalized concentration) VH: QVQLQQWGAGLLKPSETLSLTCAVSGGSFRYYYWSWIRQPPGKGLEWFGEINHSGSTNYNPSLKSRVTISIDTSKNQFSLKLRSVTAADTAVYYCARDYGAFDIWGQGTMVTVSS VL: EIVLTQSPGTLSLSPGERATLSCRASPSVNSGYLAWYQQKPGQTPRLLIFGASSRATGIPDRFSASGSGADFTLTISRLEPEDFAVYFCQQYESSPWTFGQGTKVEIK	binds
48B12 (antibody, V domains shown, Tested as hybridoma supernatant at normalized concentration) VH: EVQLLESGGGLVQPGGSLRLSCAASGFTFSSYAMNWVRQAPGKGLEWVSAISGRGGNTFYADSVKGRFTISRDNSKNTLYLQMNSLRAEDTAVYYCAKRETYNWNYEGFDYWGQGTLVTVSS VL: SYELTQPPSVSVSPGQTARITCSGDALPKKYAYWYQQKSGQAPVLVIYEDSKRPSGIPERFSGSSSGTMATLTISGAQVEDEADYYCNSTDSSGNHVVFGGGTKLTVL	binds

Next, values leading:

binding result	Binder
binds	25A4 (antibody, V domains shown, Tested as hybridoma supernatant at normalized concentration) VH: QVLLVQSGAEVKRPGASVKVSCKASGYTFTNYDINWVRQATGQGLEWMGWMYPNSGNTGYAQKFQGRVTMTRNTSISTAYMELSSLRSEDTAVYYCASSSGWYYFDYWGQGTLVTVSS VL: DIVMTQFPDSLAVSLGERATIKCKSSQSVLYSSHNNNYLAWYQQKPGQPPKLLLYWASTRESGVPDRFSGSGSGTEFTLTISSLEAEDVAVYYCQQYYSTPPTFGQGTKVEIK
binds	4A2 (antibody, V domains shown, Tested as hybridoma supernatant at normalized concentration) VH: QVQLVQSGTEVKKPGASVKVSCKASGYTFTNYDINWVRQATGQGLEWMGWMHPNSGNTGYAQKFQGRVTLTRNTSISTAYMELSSLRSEDTAVYYCASSSGWYYFDYWGQGTLVTVSS VL: DIVMTQSPDSLAVSLGERATINCKSSQSILHSSNNNNYLAWFQQKPGQPPKLLLYWASTRESGVPDRFSGSGSGTDFTLTISSLQPEDVAVYYCQQYYNTPVTFGPGTKVGIK
binds	194A4 (antibody, V domains shown, Tested as hybridoma supernatant at normalized concentration) VH: QVQLVQSGTEVKKPGASLKVSCKASGYTFTVYYLNWVRQAPGQGLEWMGWINPNSGGTNYAQKFQGRVTMTRDTSISTAYMELSRLRSDDTAVYYCARGYDILTGWGQGTLVTVSS VL: EIVLTQSPGTLSLSPGERATLSCRASRGVSNIYLAWYQQKPGQAPRLLIYGASNRATGIPDRFSGSGSGTDFTLTISRLEPEDFAVYYCQHNDYSMFTFGPGTKVDIK
